From patent publication US20240174748A1 (INNATE PHARMA, published 2024)
Positions count from the first letter of the chain named.

B1: NKp46-4 H2L2 (antibody, human IgG1, V domains shown)
VH: QVQLVQSGAEVKKPGASVKVSCKASGYTFTSFTMHWVRQAPGQGLEWIGYINPSSGYTEYNQKFKDRTTITADKSTSTAYMELSSLRSEDTAVYYCVRGSSRGFDYWGQGTLVTVSS
VL: DIQMTQSPSSLSASVGDRVTITCRASENIYSNLAWFQQKPGKAPKLLVYAATNLADGVPSRFSGSGSGTDYTLTISSLQPEDFATYYCQHFWGTPRTFGGGTKVEIK
notes: Produced as human IgG1
B2: NKp46-4 H3L2 (antibody, human IgG1, V domains shown)
VH: B1 VH with I70L
VL: B1 VL
notes: Produced as human IgG1

Molecular target: T1, Cynomolgus NKp46 (Macaca fascicularis (cynomolgus), UniProt Q95JB9 22-254)
T1 construct: also called cynomologus NKp46; macaca fascicularis NKp46
T1 sequence (Q95JB9 22-254): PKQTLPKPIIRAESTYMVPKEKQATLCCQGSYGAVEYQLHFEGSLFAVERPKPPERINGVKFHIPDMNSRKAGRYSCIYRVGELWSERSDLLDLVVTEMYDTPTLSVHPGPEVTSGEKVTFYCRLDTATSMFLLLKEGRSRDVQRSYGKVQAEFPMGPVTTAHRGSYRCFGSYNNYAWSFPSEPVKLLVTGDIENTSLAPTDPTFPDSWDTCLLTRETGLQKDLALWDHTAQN
Assay: not stated (human IgG1)

Binder	fold lower affinity for cynomolgus NKp46 than for human NKp46 [fold]
B1	10
B2	10
